Results reported in US10704056B2, “Constitutively active ABA receptor mutants” (The Regents of the University of California, priority 2011, dated 2020).

T1: ABI2 (Arabidopsis thaliana, UniProt O04719)
T1 construct: Full length ABI1 and ABI2 were cloned into a modified pSUMO vector; made in house; host or cells: E. coli BL21 (DE3) pLysS
T1 sequence (O04719 1-423): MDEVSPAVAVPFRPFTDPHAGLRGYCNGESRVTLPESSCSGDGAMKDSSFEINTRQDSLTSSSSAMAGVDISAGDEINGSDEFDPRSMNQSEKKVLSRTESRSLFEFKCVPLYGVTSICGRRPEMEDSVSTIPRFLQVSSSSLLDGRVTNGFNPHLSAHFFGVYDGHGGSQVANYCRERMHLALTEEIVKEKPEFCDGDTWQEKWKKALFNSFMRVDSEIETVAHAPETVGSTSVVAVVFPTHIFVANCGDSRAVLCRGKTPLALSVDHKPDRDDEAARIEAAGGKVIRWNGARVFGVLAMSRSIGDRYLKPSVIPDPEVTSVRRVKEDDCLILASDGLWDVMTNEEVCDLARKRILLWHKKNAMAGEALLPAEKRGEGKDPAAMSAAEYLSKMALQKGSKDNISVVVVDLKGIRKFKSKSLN

T2: ABI1 (Arabidopsis thaliana, UniProt P49597)
T2 construct: Full length ABI1 and ABI2 were cloned into a modified pSUMO vector; made in house; host or cells: E. coli BL21 (DE3) pLysS
T2 sequence (P49597 1-434): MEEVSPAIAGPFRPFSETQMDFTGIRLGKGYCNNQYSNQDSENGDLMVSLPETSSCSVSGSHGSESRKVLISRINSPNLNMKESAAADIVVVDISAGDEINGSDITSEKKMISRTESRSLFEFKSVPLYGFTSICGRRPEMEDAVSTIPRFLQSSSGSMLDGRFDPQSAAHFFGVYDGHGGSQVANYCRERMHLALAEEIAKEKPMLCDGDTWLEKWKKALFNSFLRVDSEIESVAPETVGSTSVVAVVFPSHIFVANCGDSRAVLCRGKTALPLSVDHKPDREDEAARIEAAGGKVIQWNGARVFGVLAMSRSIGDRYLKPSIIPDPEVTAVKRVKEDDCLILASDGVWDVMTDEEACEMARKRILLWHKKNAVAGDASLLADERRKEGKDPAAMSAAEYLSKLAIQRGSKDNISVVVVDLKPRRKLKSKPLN


Columns and labels:
[1] = target: T1, ABI2; test: In vitro PP2C phosphatase (pNPP) receptor activation assay with ABI2; assay type: biochemical; conditions: 600 nM PP2C, 0-4800 nM receptor, no ABA
Experimental: (§1) Full length ABI1 and ABI2 were cloned into a modified pSUMO vector (LifeSensors Inc, USA) vector yielding 6×His-SUMO fusion proteins; GST-HAB1 was expressed and purified as previously described (Park et al., 2009). Mutant receptors were cloned into pET28 yielding 6×His-fusion proteins. […]. The cultures were pre-incubated 2 hours at 30° C. and, for PP2C expression, media was supplemented with 4 mM MnCl2 one hour after inoculation. After pre-incubation, IPTG was added (1 mM) and cells were induced at 15° C. for 16 hours, after which they were collected by centrifugation, resuspended in 5 ml Buffer A (50 mM NaH2PO4, 300 mM NaCl) +10 mM imidazole, pH 8.0 and stored at −80° C. For purification, cells were thawed, sonicated on ice (60 seconds) and a cleared lysate was then applied a 1 ml-bed volume column of Ni-NTA (Qiagen, USA), washed with 20 column volumes of Buffer A+30 mM imidazole and bound protein eluted with 1 ml of Buffer A+250 mM imidazole. For receptors, the elutate was dialyzed against TBS and for PP2Cs, fusion proteins were desalted by passage over a Sephadex G50 column.
(§2) The purified receptors and phosphatases were then used in receptor assays where receptor activation is indicated by inhibition of phosphatase activity, as inferred from initial reaction velocities for PP2C-mediated hydrolysis of the synthetic phosphatase substrate pNPP in reactions containing 600 nM PP2C and either 0, 600, 1200, 2400 or 4800 nM receptor. The receptor assay buffer consisted of 33 mM Tris-OAc, pH 7.9, 66 mM KOAc, 0.1% BSA, 25 mM Mn(OAc)2, 0.1%13-ME and 50 mM pNPP. Immediately after mixing proteins and substrates, reactions were monitored for hydrolysis of pNPP at A405 at ˜2 minutes intervals using a Wallac plate reader. Reaction progressions were plotted, initial velocities calculated and converted to specific activities by comparison to a standard curve for 4-nitrophenol made in the same buffer system. PP2C activity values shown in figures are expressed as %-control phosphatase activity levels, as measured under identical reaction conditions in the absence of receptor protein. The average specific activity level of GST-HAB1, 6×His-SUMO-ABI1 and 6×His-SUMO-ABI2 utilized in our experiments was 4500 (GST-PP2C) or 2500 (SUMO-PP2C) μmol/min/mg, when assayed using the phosphatase substrate pNPP in the absence of PYR1 or other receptors.

[2] = target: T2, ABI1; test: In vitro PP2C phosphatase (pNPP) receptor activation assay with ABI1; assay type: biochemical; conditions: 600 nM PP2C, 0-4800 nM receptor, no ABA
Experimental: as §1, §2

[3] = system: HAB1; test: In vitro PP2C phosphatase (pNPP) receptor activation assay with HAB1; assay type: biochemical, Arabidopsis; conditions: 600 nM GST-HAB1, 0-4800 nM receptor, no ABA
Experimental: Recombinant receptor proteins were produced as follows: Coding sequences were cloned into pET28 yielding 6×HIS (SEQ ID NO:173) fusions proteins and transformed into E. coli expression strain BL21. […]. Cells were stored at −80° C. before purification. After thawing, cells were sonicated on ice five times for 30 sec with 30 sec resting intervals. A cleared lysate was obtained after centrifugation at 12,000×g for 10 min and applied to 1 ml of Ni-NTA column (Qiagen) and washed with 20 column volumes of Buffer A containing 30 mM imidazole. Bound protein was eluted with 10 ml of Buffer A with 250 mM imidazole. The elutate was dialyzed against TBS. The purified recombinant proteins were then used together with recombinant phosphatases in receptor assays. In these assays, receptor activity is indicated by inhibition of phosphatase activity, as inferred from initial reaction velocities for GST-HAB1 mediated hydrolysis of the synthetic phosphatase substrate pNPP. Reactions contained 600 nM GST-HAB1 and either 0, 600, 1200, 2400 or 4800 nM 6×His-PYR1 or variants in a reaction buffer consisting of 33 mM Tris-OAc, pH 7.9, 66 mM KOAc, 0.1% BSA, 25 mM Mn(OAc)2, 50 mM pNPP. To infer the level of receptor activation with respect to fully activated wild type receptor, control reactions were also conducted using saturating levels of (+)-ABA (10 μM), and 600 nM wild type PYR1 and HAB1. Immediately after mixing proteins and substrates, reactions were monitored for hydrolysis of pNPP at A405 at ˜10 second intervals over 20 minutes using a Wallac plate reader. Reaction progressions were plotted, initial velocities calculated and converted to specific activities using a standard curve for 4-nitrophenol made in the same buffer system volumes/plate reader used for enzymatic reaction measurements. The values shown are expressed as %-control phosphatase activity levels as measured in the absence of receptor protein. The average specific activity level of GST-HAB1 utilized in our experiments was 4000 μmol/min/mg, when assayed on the phosphatase substrate pNPP in the absence of PYR1 or other receptors, as described using the methods above.
as §1
The purified receptors and phosphatases were then used in receptor assays where receptor activation is indicated by inhibition of phosphatase activity, as inferred from initial reaction velocities for PP2C-mediated hydrolysis of the synthetic phosphatase substrate pNPP in reactions containing 600 nM PP2C and either 0, 600, 1200, 2400 or 4800 nM receptor. The receptor assay buffer consisted of 33 mM Tris-OAc, pH 7.9, 66 mM KOAc, 0.1% BSA, 25 mM Mn(OAc)2, 0.1%13-ME and 50 mM pNPP. Immediately after mixing proteins and substrates, reactions were monitored for hydrolysis of pNPP at A405 at ˜2 minutes intervals using a Wallac plate reader. […]

constitutive receptor activity on ABI2 in the absence of ABA [1]	constitutive receptor activity on ABI1 in the absence of ABA [2]	basal receptor activity (inhibition of HAB1 phosphatase activity in the absence of ABA) [3]	Molecule
active towards multiple PP2Cs	active towards multiple PP2Cs	highly activated in the absence of ABA	PYL9^CA4: PYL9 mutant (V85F, Y160I, F161V) (protein) HHHHHHMMDGVEGGTAMYGGLETVQYVRTHHQHLCRENQCTSALVKHIKAPLHLVWSLVRRFDQPQKYKPFVSRCTVIGDPEIGSLREVNFKSGLPATTSTERLELLDDEEHILGIKIIGGDHRLKNYSSILTVHPEIIEGRAGTMVIESFVVDVPQGNTKDETCIVVEALIRCNLKSLADVSERLASQDITQ
active towards multiple PP2Cs	active towards multiple PP2Cs	highly activated in the absence of ABA	PYL2^CA4: PYL2 mutant (H65P, V87F, M1641, F165V) (protein) HHHHHHMSSSPAVKGLTDEEQKTLEPVIKTYHQFEPDPTTCTSLITQRIHAPASVVWPLIRRFDNPERYKPFVKRCRLISGDGDVGSVREVTFISGLPASTSTERLEFVDDDHRVLSFRVVGGEHRLKNYKSVTSVNEFLNQDSGKVYTVVLESYTVDIPEGNTEEDTKIVVDTVVKLNLQKLGVAATSAPMHDDE
		increase basal activity of receptors	M158I: PYR1 receptor mutant with amino acid substitution M158I (protein, synthetic mutated PYR/PYL receptor polypeptide PYR1 M158I) MPSELTPEERSELKNSIAEFHTYQLDPGSCSSLHAQRIHAPPELVWSIVRRFDKPQTYKHFIKSCSVEQNFEMRVGCTRDVIVISGLPANTSTERLDILDDERRVTGFSIIGGEHRLTNYKSVTTVHRFEKENRIWTVVLESYVVDMPEGNSEDDTRIFADTVVKLNLQKLATVAEAMARNSGDGSGSQVT
		increase basal activity of receptors	T162F: PYR1 receptor mutant with amino acid substitution T162F (protein, synthetic mutated PYR/PYL receptor polypeptide PYR1 T162F) MPSELTPEERSELKNSIAEFHTYQLDPGSCSSLHAQRIHAPPELVWSIVRRFDKPQTYKHFIKSCSVEQNFEMRVGCTRDVIVISGLPANTSTERLDILDDERRVTGFSIIGGEHRLTNYKSVTTVHRFEKENRIWTVVLESYVVDMPEGNSEDDTRMFADFVVKLNLQKLATVAEAMARNSGDGSGSQVT
		increase basal activity of receptors	F159V: PYR1 receptor mutant with amino acid substitution F159V (protein, synthetic mutated PYR/PYL receptor polypeptide PYR1 F159V) MPSELTPEERSELKNSIAEFHTYQLDPGSCSSLHAQRIHAPPELVWSIVRRFDKPQTYKHFIKSCSVEQNFEMRVGCTRDVIVISGLPANTSTERLDILDDERRVTGFSIIGGEHRLTNYKSVTTVHRFEKENRIWTVVLESYVVDMPEGNSEDDTRMVADTVVKLNLQKLATVAEAMARNSGDGSGSQVT

Molecule	constitutive receptor activity on ABI2 in the absence of ABA [1]	constitutive receptor activity on ABI1 in the absence of ABA [2]	basal receptor activity (inhibition of HAB1 phosphatase activity in the absence of ABA) [3]
PYR1^CA3: PYR1 triple mutant (H60P, V83F, F159V) (protein) HHHHHHMPSELTPEERSELKNSIAEFHTYQLDPGSCSSLHAQRIHAPPELVWSIVRRFDKPQTYKPFIKSCSVEQNFEMRVGCTRDVIFISGLPANTSTERLDILDDERRVTGFSIIGGEHRLTNYKSVTTVHRFEKENRIWTVVLESYVVDMPEGNSEDDTRMVADTVVKLNLQKLATVAEAMARNSGDGSGSQVT	interact with ABI1 and ABI2	interact with ABI1 and ABI2	dramatically increased basal PYR1 activity
PYR1^CA4: PYR1 quadruple mutant (H60P, V83F, F159V, M158I) (protein) HHHHHHMPSELTPEERSELKNSIAEFHTYQLDPGSCSSLHAQRIHAPPELVWSIVRRFDKPQTYKPFIKSCSVEQNFEMRVGCTRDVIFISGLPANTSTERLDILDDERRVTGFSIIGGEHRLTNYKSVTTVHRFEKENRIWTVVLESYVVDMPEGNSEDDTRIVADTVVKLNLQKLATVAEAMARNSGDGSGSQVT	interact with ABI1 and ABI2	interact with ABI1 and ABI2	dramatically increased basal PYR1 activity
